Assay results from IntAct's records for PubMed 10409743.

B1: Cell cycle serine/threonine-protein kinase hsk1 (Schizosaccharomyces pombe (strain ATCC 38366 / 972)), P50582 (parent)
chain: MAEAHITLSPKVTHEQQTDIDSECEITEVDDENVNENKSQEMIQDIPARDREEIENITRTFVELQENYRLIEKIGEGTFSSVYKAEDLHYGRYINDWDIQSEVLKESSFGKEKIPVNEDSRKPKYVAIKKIYATSSPARIYNELEILYLLRGSSVIAPLITALRNEDQVLVVLPYYEHTDFRQYYSTFSYRDMSIYFRCLFQAMQQTQTLGIIHRDIKPSNFLFDVRTKHGVLVDFGLAERYDGRQQSHSCRCTNSNAAELAHDFSIAQETSLGYIKNDTRPSKRANRAGTRGFRAPEVLFKCSSQSPKVDIWSAGVILLSFLTKRFPMFNSKDDVDALMEIACIFGKSEMRQCAALHGCTFETNVSTLTEKRVNFRKLILWASCGSASIYKEKLRHKPSQEERLCLDFLEKCLELDCNKRISAEEALDHDFLYLDNLAYEKKDDDTAFDNSFGETSFEKDEDLTAKHLSHILDFKEQEETDEPTSLSKRKRSIDEILPNDALQDGA
partner: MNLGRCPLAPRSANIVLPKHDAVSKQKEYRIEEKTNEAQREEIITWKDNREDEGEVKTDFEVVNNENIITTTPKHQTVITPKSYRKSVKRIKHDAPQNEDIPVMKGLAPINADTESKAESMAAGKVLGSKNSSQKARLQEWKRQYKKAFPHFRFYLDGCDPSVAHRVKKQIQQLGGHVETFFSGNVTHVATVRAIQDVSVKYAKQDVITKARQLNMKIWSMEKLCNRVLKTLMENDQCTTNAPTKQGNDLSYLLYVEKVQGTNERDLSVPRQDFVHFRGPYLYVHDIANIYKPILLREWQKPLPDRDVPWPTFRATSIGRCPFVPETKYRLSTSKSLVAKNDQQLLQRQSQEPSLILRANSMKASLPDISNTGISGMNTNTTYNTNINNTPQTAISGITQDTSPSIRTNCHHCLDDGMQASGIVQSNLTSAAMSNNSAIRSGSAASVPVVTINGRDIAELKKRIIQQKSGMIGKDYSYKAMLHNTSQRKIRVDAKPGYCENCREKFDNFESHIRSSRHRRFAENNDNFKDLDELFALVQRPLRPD

Variants of: B1
Conditions: with him1_schpo him1, O59836

| effect of a mutation on the interaction | Variant |
| --- | --- |
| with no effect | K129A;K130S |
